Experimental data: US20240287138A1 (Merck Sharp & Dohme, published 2024)
Numbered stars: 1 amine (or outer) side, 2 acyl side, 3 side chain; on linkers, the order of the positions; unused ones are H or OH. Bridge positions count the residues as written; N and C are the ends. Square brackets hold non-standard residues; d marks the D form. Primed or numbered codes have the meaning given here. NEtCNG = 2-(2-Cyanoethylamino)acetic acid ((2-cyanoethyl)glycine), N#CCCN(CC(=O)[*:2])[*:1]; bhcLeu = (1R,3S)-3-aminocyclopentane-1-carboxylic acid, O=C([C@@H]1CC[C@H](N[*:1])C1)[*:2]; AhpF3 = (S)-2-Amino-7,7,7-trifluoroheptanoic acid, O=C([C@H](CCCCC(F)(F)F)N[*:1])[*:2]; Trp(βS-Me,7-OMe) = COc1cccc2c([C@H](C)[C@H](N)C(=O)O)c[nH]c12; Trp(βS-Me) = C[C@@H](c1c[nH]c2ccccc12)[C@H](N)C(=O)O; Trp(7-Cl) = N[C@@H](Cc1c[nH]c2c(Cl)cccc12)C(=O)O; Phe(4-CONH2) = NC(=O)c1ccc(C[C@H](N)C(=O)O)cc1; Phe(4-COOH) = N[C@@H](Cc1ccc(C(=O)O)cc1)C(=O)O; Trp(7-aza) = N[C@@H](Cc1c[nH]c2ncccc12)C(=O)O; Phe(4-CH2NH2) = NCc1ccc(C[C@H](N)C(=O)O)cc1; 3Pal(6-OMe) = COc1ccc(C[C@H](N)C(=O)O)cn1; Pip(5R-OH) = O=C(O)[C@@H]1CC[C@@H](O)CN1; αMeW = C[C@](N)(Cc1c[nH]c2ccccc12)C(=O)O; Ala(2-furyl) = N[C@@H](Cc1ccco1)C(=O)O; 2Nal = N[C@@H](Cc1ccc2ccccc2c1)C(=O)O; Dap(CONH2) = NC(=O)NC[C@H](N)C(=O)O; Val(3-OH) = CC(C)(O)[C@H](N)C(=O)O; Pip(4-aza) = O=C(O)[C@@H]1CNCCN1; 3Pal = N[C@@H](Cc1cccnc1)C(=O)O; 4Pal = N[C@@H](Cc1ccncc1)C(=O)O; NMeE = CN[C@@H](CCC(=O)O)C(=O)O; Morpip6diMe = not defined here; dbhcLeu = not defined here; 2SBrBu = not defined here; Pip = O=C(O)[C@@H]1CCCCN1; αMeS = C[C@](N)(CO)C(=O)O; Nle = CCCC[C@H](N)C(=O)O; Ahp′ = not defined here; Spip = not defined here; Dap = NC[C@H](N)C(=O)O; Sar = CNCC(=O)O

T1: TNFR1 on THP-1 Lucia NF-κB cells (UniProt P19438 30-455, limits assumed)
T1 sequence (looked up): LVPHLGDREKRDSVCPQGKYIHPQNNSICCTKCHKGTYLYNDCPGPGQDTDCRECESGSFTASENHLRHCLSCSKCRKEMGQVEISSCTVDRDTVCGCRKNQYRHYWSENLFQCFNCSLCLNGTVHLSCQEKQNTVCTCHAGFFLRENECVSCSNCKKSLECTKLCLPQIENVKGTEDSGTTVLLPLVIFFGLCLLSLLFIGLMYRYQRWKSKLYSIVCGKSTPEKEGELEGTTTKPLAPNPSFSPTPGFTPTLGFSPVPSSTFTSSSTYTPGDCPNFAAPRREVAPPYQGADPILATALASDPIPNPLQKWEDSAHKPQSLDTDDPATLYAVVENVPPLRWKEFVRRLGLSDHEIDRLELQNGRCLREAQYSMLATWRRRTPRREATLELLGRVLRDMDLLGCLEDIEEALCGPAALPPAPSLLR

B1: SEQ ID NO. 213 (peptide)
peptide: cyclo([bhcLeu][AhpF3][4Pal][Pip(4-aza)]W[NMeE]N[4Pal][Trp(7-Cl)][αMeS][Phe(4-COOH)]Y[Sar][Trp(βS-Me,7-OMe)])
SMILES: COc1cccc2c([C@H](C)[C@@H]3NC(=O)CN(C)C(=O)[C@H](Cc4ccc(O)cc4)NC(=O)[C@H](Cc4ccc(C(=O)O)cc4)NC(=O)[C@](C)(CO)NC(=O)[C@H](Cc4c[nH]c5c(Cl)cccc45)NC(=O)[C@H](Cc4ccncc4)NC(=O)[C@H](CC(N)=O)NC(=O)[C@H](CCC(=O)O)N(C)C(=O)[C@H](Cc4c[nH]c5ccccc45)NC(=O)[C@@H]4CNCCN4C(=O)[C@H](Cc4ccncc4)NC(=O)[C@H](CCCCC(F)(F)F)NC(=O)[C@@H]4CC[C@@H](C4)NC3=O)c[nH]c12
B2: SEQ ID NO. 214 (peptide)
peptide: cyclo([dbhcLeu][Nle][4Pal][Morpip6diMe]W[NMeE]N[4Pal][Trp(7-Cl)][αMeS][Phe(4-CONH2)]Y[Sar][Trp(βS-Me,7-OMe)])
modifications: reading uncertain; also: printed as cyclo(dbhcLeu-Nle-4Pal-Morpip6diMe-W-NMeE-N-4Pal-Trp7Cl-aMeS-Phe4CONH2-Y-Sar-SbMeW7OMe)
B3: SEQ ID NO. 217 (peptide)
peptide: {CH2CO}-[Nle]H[Val(3-OH)][Trp(7-aza)][NMeE]N[4Pal][Trp(7-Cl)][αMeS][Phe(4-COOH)]Y[Sar][Trp(βS-Me,7-OMe)]C-NH2
modifications: thioether N-14
SMILES: CCCC[C@@H]1NC(=O)CSC[C@@H](C(N)=O)NC(=O)[C@H]([C@@H](C)c2c[nH]c3c(OC)cccc23)NC(=O)CN(C)C(=O)[C@H](Cc2ccc(O)cc2)NC(=O)[C@H](Cc2ccc(C(=O)O)cc2)NC(=O)[C@](C)(CO)NC(=O)[C@H](Cc2c[nH]c3c(Cl)cccc23)NC(=O)[C@H](Cc2ccncc2)NC(=O)[C@H](CC(N)=O)NC(=O)[C@H](CCC(=O)O)N(C)C(=O)[C@H](Cc2c[nH]c3ncccc23)NC(=O)[C@H](C(C)(C)O)NC(=O)[C@H](Cc2c[nH]cn2)NC1=O
B4: SEQ ID NO. 225 (peptide)
peptide: cyclo([bhcLeu][Nle][4Pal][Pip(4-aza)]W[NMeE][Dap(CONH2)][4Pal][Trp(7-Cl)][αMeS][Phe(4-COOH)]Y[Sar][Trp(βS-Me,7-OMe)])
SMILES: CCCC[C@@H]1NC(=O)[C@@H]2CC[C@@H](C2)NC(=O)[C@H]([C@@H](C)c2c[nH]c3c(OC)cccc23)NC(=O)CN(C)C(=O)[C@H](Cc2ccc(O)cc2)NC(=O)[C@H](Cc2ccc(C(=O)O)cc2)NC(=O)[C@](C)(CO)NC(=O)[C@H](Cc2c[nH]c3c(Cl)cccc23)NC(=O)[C@H](Cc2ccncc2)NC(=O)[C@H](CNC(N)=O)NC(=O)[C@H](CCC(=O)O)N(C)C(=O)[C@H](Cc2c[nH]c3ccccc23)NC(=O)[C@@H]2CNCCN2C(=O)[C@H](Cc2ccncc2)NC1=O
B5: SEQ ID NO. 226 (peptide)
peptide: {CH2CO}-[Ahp′]Y[AlaPiperaz][Trp(βS-Me)][dP]N[4Pal][Trp(7-Cl)][αMeS][Phe(4-COOH)][3Pal][Sar][αMeW]C-NH2
modifications: thioether N-14; reading uncertain; also: printed as cyclo(ClAc-Ahp-Y-AlaPiperaz-SbMeW-dP-N-4Pal-Trp7Cl-aMeS-Phe4COOH-3Pal-Sar-aMeW-C)-NH2
B6: SEQ ID NO. 228 (peptide)
peptide: {CH2CO}-[Nle][4Pal][Pip][Trp(7-aza)][NEtCNG]N[4Pal][Trp(7-Cl)][αMeS][Phe(4-COOH)]Y[Sar][Trp(βS-Me,7-OMe)]C-NH2
modifications: thioether N-14
SMILES: CCCC[C@@H]1NC(=O)CSC[C@@H](C(N)=O)NC(=O)[C@H]([C@@H](C)c2c[nH]c3c(OC)cccc23)NC(=O)CN(C)C(=O)[C@H](Cc2ccc(O)cc2)NC(=O)[C@H](Cc2ccc(C(=O)O)cc2)NC(=O)[C@](C)(CO)NC(=O)[C@H](Cc2c[nH]c3c(Cl)cccc23)NC(=O)[C@H](Cc2ccncc2)NC(=O)[C@H](CC(N)=O)NC(=O)CN(CCC#N)C(=O)[C@H](Cc2c[nH]c3ncccc23)NC(=O)[C@@H]2CCCCN2C(=O)[C@H](Cc2ccncc2)NC1=O
B7: SEQ ID NO. 236 (peptide)
peptide: {CH2CO}-[Nle][4Pal][Pip(4-aza)]W[dP]N[Ala(2-furyl)][Trp(7-Cl)][αMeS][Phe(4-COOH)]Y[Sar][Trp(βS-Me,7-OMe)]C-NH2
modifications: thioether N-14
SMILES: CCCC[C@@H]1NC(=O)CSC[C@@H](C(N)=O)NC(=O)[C@H]([C@@H](C)c2c[nH]c3c(OC)cccc23)NC(=O)CN(C)C(=O)[C@H](Cc2ccc(O)cc2)NC(=O)[C@H](Cc2ccc(C(=O)O)cc2)NC(=O)[C@](C)(CO)NC(=O)[C@H](Cc2c[nH]c3c(Cl)cccc23)NC(=O)[C@H](Cc2ccco2)NC(=O)[C@H](CC(N)=O)NC(=O)[C@H]2CCCN2C(=O)[C@H](Cc2c[nH]c3ccccc23)NC(=O)[C@@H]2CNCCN2C(=O)[C@H](Cc2ccncc2)NC1=O
B8: SEQ ID NO. 237 (peptide)
peptide: {CH2CO}-[Ahp′][4Pal]S[Trp(βS-Me)][dP]N[Phe(4-COOH)][2Nal][αMeS][Phe(4-COOH)]H[Sar][αMeW]C-NH2
modifications: thioether N-14; reading uncertain; also: printed as cyclo(ClAc-Ahp-4Pal-S-SbMeW-dP-N-Phe4COOH-2Nal-aMeS-Phe4COOH-H-Sar-aMeW-C)-NH2
B9: SEQ ID NO. 241 (peptide)
peptide: cyclo([bhcLeu][Nle][3Pal(6-OMe)][Pip(4-aza)]W[NMeE]N[4Pal][Trp(7-Cl)][αMeS][Phe(4-COOH)]Y[Sar][Trp(βS-Me,7-OMe)])
SMILES: CCCC[C@@H]1NC(=O)[C@@H]2CC[C@@H](C2)NC(=O)[C@H]([C@@H](C)c2c[nH]c3c(OC)cccc23)NC(=O)CN(C)C(=O)[C@H](Cc2ccc(O)cc2)NC(=O)[C@H](Cc2ccc(C(=O)O)cc2)NC(=O)[C@](C)(CO)NC(=O)[C@H](Cc2c[nH]c3c(Cl)cccc23)NC(=O)[C@H](Cc2ccncc2)NC(=O)[C@H](CC(N)=O)NC(=O)[C@H](CCC(=O)O)N(C)C(=O)[C@H](Cc2c[nH]c3ccccc23)NC(=O)[C@@H]2CNCCN2C(=O)[C@H](Cc2ccc(OC)nc2)NC1=O
B10: SEQ ID NO. 246 (peptide)
peptide: 2SBrBu-[Nle][4Pal][Spip]W[NMeE]N[4Pal][Trp(7-Cl)][αMeS][Phe(4-CONH2)]Y[Sar][Trp(βS-Me,7-OMe)]C-NH2
modifications: thioether N-14; reading uncertain; also: printed as cyclo(2SBrBu-Nle-4Pal-Spip-W-NMeE-N-4Pal-Trp7Cl-aMeS-Phe4CONH2-Y-Sar-SbMeW7OMe-C)-NH2

Target: T1, TNFR1 on THP-1 Lucia NF-κB cells
Assay: cell-based or functional assay

Row | Binder | THP-1 IC50 [nM]
1 | B1 | 1
2 | B2 | 3.7
3 | B3 | 4.4
4 | B4 | 0.9
5 | B5 | 10
6 | B6 | 4
7 | B7 | 4.2
8 | B8 | 20.8
9 | cyclo([bhcLeu][LysMe2][4Pal][Pip(5R-OH)]W[NMeE]N[4Pal][Trp(7-Cl)][αMeS][Phe(4-CONH2)]Y[Sar][Trp(βS-Me,7-OMe)]) [SEQ ID NO. 238] | 0.7
10 | B9 | 1.4
11 | {CH2CO}-[LysN3][4Pal][Dap][Trp(βS-Me)][dP]N[4Pal][Trp(7-Cl)][αMeS][Phe(4-COOH)][Phe(4-CH2NH2)][Sar][αMeW]C-NH2 (thioether N-14) [SEQ ID NO. 245] | 9.4
12 | B10 | 4.3
